This is an account of results in article PMC4937444.

In the series the test system is MukB (Escherichia coli). Description: pull-down (MU topological loading assay). The note with it: no ATP, 750 mM KCl wash, MU assay: low salt 25 mM KCl loading (37 °C), His-tag affinity beads, typically 7.3 pmol MukB and 100 ng DNA, SSB EMSA: HKD buffer (25 mM …). (In general: A gel shift assay detects complexes by their altered migration in electrophoresis.)
Consider cccDNA (pUC19/pUC119), for which the binding signal (% DNA retrieved) was determined as 4.6. As for ldsDNA, the figure is 0.6; as for pUC119 cssDNA, 10.6.
